This is an account of results in US20200315149.

Data set [1] has as its target full-length coagulation factor XII purified from human plasma (UniProt P00748).
The target of the next data set is cathepsin K-cleaved FXII (UniProt P00748).
Data set [2] addresses recombinant human pro-HGF (UniProt P14210).

plasma kallikrein, sequence (chain, as listed by the source): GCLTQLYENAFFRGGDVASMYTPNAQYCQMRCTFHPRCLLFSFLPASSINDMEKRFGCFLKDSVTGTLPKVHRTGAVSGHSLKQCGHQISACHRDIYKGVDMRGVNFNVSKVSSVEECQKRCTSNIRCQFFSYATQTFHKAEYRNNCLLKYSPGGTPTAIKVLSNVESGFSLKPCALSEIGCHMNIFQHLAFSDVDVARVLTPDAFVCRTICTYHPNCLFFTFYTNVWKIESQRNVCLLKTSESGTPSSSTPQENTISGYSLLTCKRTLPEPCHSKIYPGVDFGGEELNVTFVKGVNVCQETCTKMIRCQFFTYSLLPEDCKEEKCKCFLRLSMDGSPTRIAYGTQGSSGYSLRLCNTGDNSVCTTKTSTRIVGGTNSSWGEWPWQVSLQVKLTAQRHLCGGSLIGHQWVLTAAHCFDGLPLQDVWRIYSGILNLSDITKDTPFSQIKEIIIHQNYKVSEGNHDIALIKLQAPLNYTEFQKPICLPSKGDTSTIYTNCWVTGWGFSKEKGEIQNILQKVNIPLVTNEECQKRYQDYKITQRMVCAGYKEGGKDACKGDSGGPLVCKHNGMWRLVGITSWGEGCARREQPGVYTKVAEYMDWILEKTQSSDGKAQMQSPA
recombinant human pro-HGF, sequence (P14210 32-728): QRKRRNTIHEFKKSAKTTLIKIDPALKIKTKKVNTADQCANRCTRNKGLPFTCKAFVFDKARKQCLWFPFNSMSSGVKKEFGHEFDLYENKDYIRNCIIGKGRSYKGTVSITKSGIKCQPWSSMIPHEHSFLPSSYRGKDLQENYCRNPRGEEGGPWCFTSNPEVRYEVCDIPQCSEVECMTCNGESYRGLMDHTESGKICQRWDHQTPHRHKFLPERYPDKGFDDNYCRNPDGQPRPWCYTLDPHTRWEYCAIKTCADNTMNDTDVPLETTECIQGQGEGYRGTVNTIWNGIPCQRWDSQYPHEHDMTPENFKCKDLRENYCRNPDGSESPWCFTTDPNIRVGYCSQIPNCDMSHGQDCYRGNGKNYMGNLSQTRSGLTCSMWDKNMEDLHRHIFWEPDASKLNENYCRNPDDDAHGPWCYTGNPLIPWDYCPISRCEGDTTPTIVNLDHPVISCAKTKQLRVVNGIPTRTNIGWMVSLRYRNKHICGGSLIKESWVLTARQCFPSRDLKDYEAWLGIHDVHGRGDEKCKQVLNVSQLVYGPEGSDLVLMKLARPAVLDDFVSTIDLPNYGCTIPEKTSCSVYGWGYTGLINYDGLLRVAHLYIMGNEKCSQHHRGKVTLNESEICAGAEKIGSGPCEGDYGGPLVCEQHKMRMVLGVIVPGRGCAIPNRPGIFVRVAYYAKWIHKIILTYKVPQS
full-length coagulation factor XII purified from human plasma, sequence (P00748 20-615): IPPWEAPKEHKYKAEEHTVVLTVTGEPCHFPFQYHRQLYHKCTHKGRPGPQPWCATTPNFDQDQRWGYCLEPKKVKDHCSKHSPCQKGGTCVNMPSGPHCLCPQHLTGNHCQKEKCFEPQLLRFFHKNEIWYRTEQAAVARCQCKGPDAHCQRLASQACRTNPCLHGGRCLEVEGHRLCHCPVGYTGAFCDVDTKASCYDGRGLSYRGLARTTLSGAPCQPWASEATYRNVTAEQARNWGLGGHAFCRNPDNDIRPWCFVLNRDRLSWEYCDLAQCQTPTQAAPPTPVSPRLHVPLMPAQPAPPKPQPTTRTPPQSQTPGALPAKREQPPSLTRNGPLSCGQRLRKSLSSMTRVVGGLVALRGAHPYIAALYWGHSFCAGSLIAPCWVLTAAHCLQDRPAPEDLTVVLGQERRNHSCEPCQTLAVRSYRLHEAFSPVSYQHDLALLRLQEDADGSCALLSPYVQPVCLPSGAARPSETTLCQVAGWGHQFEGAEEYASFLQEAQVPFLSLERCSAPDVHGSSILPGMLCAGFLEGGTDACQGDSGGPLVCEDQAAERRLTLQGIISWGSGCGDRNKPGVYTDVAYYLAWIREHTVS
cathepsin K-cleaved FXII, sequence (P00748 20-615): as above

With plasma kallikrein, the “FXIIa activity on chromogenic substrate S-2302 after incubation with plasma kallikrein (15 nM, 15 min)” value is given as “Cathepsin-cleaved FXII incubated with kallikrein (15 nM) had much higher activity than full length FXII incubated with kallikrein” in data set [1] and “cathepsin K-cleaved FXII had dramatically increased activity compared to full-length FXII when incubated with plasma kallikrein” in the data set with cathepsin K-cleaved FXII.
As to thrombin, in data set [2], the “cleavage of pro-HGF, western blot” value was “other serine proteases found in the brain such as thrombin and tissue plasminogen activator did not convert pro-HGF to HGF”.
